Assay: label from the status in PepcDB records

Sequence | protein production
SGEKSENCGVPEDLLNGLKVTDTQEAECAGPPVPDPKNQHSQSKLLRDDEAHLQEDQGEEECFHDCSASFEEEPGADKVENKSNEDVNSSELDEEYLIELKKNMSDEEKQKRREESTRLKEEGNEQFKKGDYIEAESSYSRALEMCPSCFQKERSILFSNRAAARMKQDKKEMAINDCSKAIQLNPSYIRAILRRAELYEKTDKLDEALEDYKSILEKDPSIHQAREACMRLPKQIEERNERLKEEMLGKLKDLGNLVLRPFGLSTENFQIKQDSSTGSYSINFVQNPNNNR | not failed
SGHPPLEFSDCYLDSPDFRERLKCYEQELERTNKFIKDVIKDGNALISAMRNYSSAVQKFSQTLQSFQFDFIGDTLTDDEINIAESFKEFAELLNEVENERMMMVHNASDLLIKPLENFRKEQIGFTKERKKKFEKDGERFYSLLDRHLHLSSKKKESQLQEADLQVDKERHNFFESSLDYVYQIQEVQESKKFNIVEPVLAFLHSLFISNSLTVELTQDFLPYKQQLQLSLQNTRNHFSSTREEMEELKKRMKEAPQTCKLPGQPTIEGYLYTQEKCVWGHRGIHWVSISQELLPLVGCEFWAPLLFIDP | not failed
SGKVILITGASRGIGLQLVKTVIEEDDECIVYGVARTEAGLQSLQREYGADKFVYRVLDITDRSRMEALVEEIRQKHGKLDGIVANAGMLEPVKSISQSNSEHDIKQWERLFDVNFFSIVSLVALCLPLLKSSPFVGNIVFVSSGASVKPYNGWSAYGCSKAALNHFAMDIASEEPSDKVRAVCIAPGVVDTQMQKDIRETLGPQGMTPKALERFTQLYKTSSLLDPKVPAAVLAQLVLKGIPDSLNGQYLRYNDERLGPVQG | not failed
SHHKVSVSPVVHVRGLCESVVEADLVEALEKFGTICYVMMMPFKRQALVEFENIDSAKECVTFAADVPVYIAGQQAFFNYSTSKRITRPGN | not failed
SHPCFVQGRPELLSQIKRKQSARTVEDKQVNEQTQQNLEVVMAEMRAMREKAKNMEDKMNKLTKENRDMWTQMGSMRQQHARQQQYFKKLLHFLVSVMQPGLSKRVAKRGVLEIDFCAANGTAGPNSKRARMNSEEGPYKDVCDLLESLQRETQEPFSRRFTNNEGPLISEVTDEFGNSPVGRGSAQDLFGDTFGAQSSRYSDGGATSSREQSPHPIISQPQSNSAGAHGANEQKPDDMYMGSGPLTHENIHRGISALKRDYQGASPASGGPSTSSSAPSGAGAGARMAQKRAAPYKNATRQMAQPQQDYSGGFVNNYSGFMPSDPSMIPYQPSHQYLQPHQKLMAIEDQHHPTTSTSSTNADPHQNLYSPTLGLSPSFDRQLSQELQEYFTGTDTSLESFRDLVSNHNWDDFGNNVPLDDDEEGSEDPLRQLALENAPETSNYDGAEDLLFDNEQQYPENGFDVPDPNYLPLADEEIFPHSPALRTPSPS | failed
SIAYIEPYFLENDAEAASAATAAGKSTDGVSESLNIQGEILCGGAAADIAGRDFGGMNCVKPLAVVRPVGPEDIAGAVKAALRSDKLTVAARGNGHSINGQAMAEGGLVVDMSTTAENHFEVGYLSGGDATAFVDVSGGALWEDVLKRCVSEYGLAPRSWTDYLGLTVGGTLSNAGVSGQAFRYGPQTSNVTELDVVTGNGDVVTCSEIENSELFFSVLGGLGQFGIITRARVLLQPAPDMVRWIRVVYTEFDEFTQDAEWLVSQKNESSFDYVEGFVFVNGADPVNGWPTVPLHPDHEFDPTRLPQSCGSVLYCLELGLHYRDSDSNSTIDKRVERLIGRLRFNEGLRFEVDLPYVDFLLRVKRSEEIAKENGTWETPHPWLNLFVSKRDIGDFNRTVFKELVKNGVNGPMLVYPLLRSRWDDRTSVVIPEEGEIFYIVALLRFVPPCAKVSSVEKMVAQNQEIVHWCVKNGIDYKLYLPHYKSQEEWIRHFGNRWSRFVDRKAMFDPMAILSPGQKIFNRSL | not failed
SIPMRLLSDCPQFSRKTVKLLTNGGDMLELCYELRLPFVHWISVNQKSSFKRYEISHVYRRAIGHSPPNPCLQADFDIVGGTLSLTEAEVLKVIVDITTHIFHRGSCDIHLNHGDLLDAIWSWAGIKAEHRRKVAELLSMMGSLRPQSSERKLKWVFIRRQLLQELKLPEAVVNRLQTVASRFCGDADQALPRLRGALRADRPTRKALDELSNLLTYLRVWRIEEHVHIDVLMPPTESYHRNLFFQVFLTKENSSGTSNDGVLLAVGGRYDWLVQEVCDREHKMNLPGAVGVSLALETIFQHLPMDLRPIRNEVSTSVLVCSRGGGGLLVQRMELVAELWEKSIKAEFVPTPDPSLTEQYEYANEHEIKCLVIITESGVAQNQIEFVKVRHLELKKEKVVGR | not failed
SIRTKQSEAKSKGDTLRQLELAALMTHCNMLITHQQLALQAAMKLAYATKNYLYALAFAKRLLELAPNEEMERTAKKVMQFCERNPNNQNQLDYDIEQSNFAIDAGRLKPCIQPPTKSCVYCGACYDESWHSMTCVVCQVAQD | not failed
SIVLSDPDTVADYLRFHLGQEKVEVSVALLLNRQNQLIAVRELSRGTVAENTIYIREIVKLALDEYADSLIIAHNHPGGSPEPSQEDIMFTRRLAQAMSLVDVSLLDHFIVTSQSVCSFRQLGLMP | not failed
SKDHTEFMVHLNNRIILRRWSIFKEFLHSEELKNTPASVEAELAVTAILEKLNQQIPPRPFQTHSSTTSAKQSTATIHNPQRTYCVGDQLNVLLVAKDYFGNRKEYGGDFLRARIFSPAMKAGTSGKVTDFNNGTYLVSFTLFWEGPVSLSILLMHPSEGVSALWRARNRGYGKIIFTGQFLNGTSPVLTECGLTLNTSAELCQYLDARDHEAFYCLKLPGVPCEALTHMTSKNSNISYLSLEEKLLFRRFNIGVEVVKNLSIVVSLCNNKTNKKKKKCQIGMETPSPGGYTLKGRWITAHCEQNEFRAIKDINNCLTRKLIYLMGDSTLRQWIYYLPKVVKTLKYFDRHGAGPFKTHILLDTERHIFVQWKKHSHPFVTNKLFSMKDDNYIPREIDQVAGDSGTAIVISFGQHFRPFPINVFIRRAINVKNAIERLFLRSPETKVIIKTENIREINEHVEIFSDFHGSIQNLIIRDIFRDLNVGIIDAWDMTVAYRSEDVHPPESVIESQIGMFLNYIC | failed
SKDPAFTALLTTQLQVQREIVNKHNELRKAVSPPASNMLKMEWSREVTTNAQRWANKCTLQHSDPEDRKTSTRCGENLYMSSDPTSWSSAIQSWYDEILDFVYGVGPKSPNAVVGHYTQLVWYSTYQVGCGIAYCPNQDSLKYYYVCQYCPAGNNMNRKNTPYQQGTPCAGCPDDCDKGLCTNSCQYQDLLSNCDSLKNTAGCEHELLKEKCKATCLCENKIY | failed
SKDVLADYKELFRQFSISDIAVWVSTPSFAGVCITEKEFNSKMLPNLESMIFIGEALSKNLTKELMSRFPNTRIINGYGPTEATVGVSVNDMTQKAIDDEK | failed
SKEVRGTLKVSAPRDIGKQHIAPILAAFTEQYPEVVPYLYLNDNISNLAESGLDVVIRYGELADSSLISRKLATSRRVLCASPAYLARKGIPKTPQDLAQHDCLAMVRSNEEMKTWHFQENEQHKVITVVPKSFADDGEVIR | failed
SKIHNVGSPLKSQNHPDSRAIMYEETTYSKKKIIDFLSALEGFKVMCKIIGIMEEVADGFKSKILKQVISLQTKNPEGRFPDLTVELNRWDTAFDHEKARKTGLITPKAGFDSDYDQALADIRENEQSLLEYLEKQRNRIGCRTIVYWGIGRNRYQLEIPENFTTRNLPEEYELKSTKKGCKRYWTKTIEKKLANLINAEERRDVSLKDCMRRLFYNFDKNYKDWQSAVECIAVLDVLLCLANYSRGGDGPMCRPVILLPEDTPPFLELKGSRHPCITKTFFGDDFIPNDILIGCEEEEQENGKAYCVLVTGPNMGGKSTLMRQAGLLAVMAQMGCYVPAEVCRLTPIDRVFTRLGASDRIMSGESTFFVELSETASILMHATAHSLVLVDELGRGTATFDGTAIANAVVKELAETIKCRTLFSTHYHSLVEDYSQNVAVRLGHMACMVENECEDPSQETITFLYKFIKGACPKSYGFNAARLANLPEEVIQKGHRKAREFEKMNQSLRLFREVCLASERSTVDAEAVHKLLTLIKEL | failed
SKIIDIKTSIIKIPLKRTFITAVRSTNHIDSLAVELTLDNGVKGYGVAPATTAITGDTLQGMQYIIREIFAPVILGSDLSDYKQTLELAFKKVMFNSAAKMAIDLAYHDLLAKEQDISVAKLLGAKANSIVTDVSISCGNVAETIQNIQNGVEANFTAIKVKTGADFNRDIQLLKALDNEFSKNIKFRFDANQGWNLAQTKQFIEEINKYSLNVEIIEQPVKYYDIKAMAEITKFSNIPVVADESVFDAKDAERVIDEQACNMINIKLAKTGGILEAQKIKKLADSAGISCMVGCMMESPAGILATASFALAEDITVADLDPLDWVAKDLYSDYITFNEPNIILKDNLKGFGFNL | not failed
SLDLDLQRRVYDIISKAVEGNSAEAGHVIVMESKTGRILSMVTTRNWNDLIGGYIEPGSTIKPLVYAIALETHSASPDFTVECEGSIKPVEQLPVIIRDIEKHGLVDFSAGIVKSCNVMSVKVGELITEKTGVEGFYEWLRKVGFGEKTGIEMEGEIAGVLREPKKWSLIDPAEISIGQGIGVTPVQLIASLNIFANDGYWVKPTILKDSPVKKRRVFSKETTDVIRQAMVRVVEEGTGKLAQVKGIAIAGKTGTAQKAVGGEYRNLYHSLFVGFFPAEDPKYTILVHLDSPSGAFYGGEVAAPVFREIVEILTEKED | failed
SLENERLIKMSRFSERGYVVRENGPVYFTKDMDKTVKWFEEILGWSGDIVARDDEGFGDYGCVFDYPSEVAVAHLTPFRGFHLFKGEPIKGVAGFMMIEGIDALHKYVKENGWDQISDIYTQPWGARECSITTTDGCILRFFESIQEG | not failed
SLENLATAPVNQIQETISDNCVVIFSKTSCSYCTMAKKLFHDMNVNYKVVELDLLEYGNQFQDALYKMTGERTVPRIFVNGTFIGGATDTHRLHKEGKLLPLVHQCYLKKSKRKEFQ | not failed
SLGAMFRAGTPMPPNLNSQGGGHYFIDRDGKAFRHILNFLRLGRLDLPRGYGETALLRAEADFYQIRPLLDALRELEASQGTPAPTAALLHADVDVSPRLVHFSARRGPHHYELSSVQVDTFRANLFCTDSECLGALRARFGVASGDRAEGSPHFHLEWAPRPVELPEVEYGRLGLQPLWTGGPGERREVVGTPSFLEEVLRVALEHGFRLDSVFPDPEDLLNSRSLRFVRH | not failed
SLGVQPPNFSWVLPGRLAGLALPRLPAHYQFLLDLGVRHLVSLTERGPPHSDSCPGLTLHRLRIPDFCPPAPDQIDRFVQIVDEANARGEAVGVHCALGFGRTGTMLACYLVKERGLAAGDAIAEIRRLRPGSIETYEQEKAVFQFYQRTK | not failed
SLLGQKSQRYKAEEGLQAQGEAPGLMDVQIPTAEEQKAASSSSTLIMGTLEEVTDSGSPSPPQSPEGASSSLTVTDSTLWSQSDEGSSSNEEEGPSTSPDPAHLESLFREALDEKVAELVRFLLRKYQIKEPVTKAEMLESVIKNYKNHFPDIFSKASECMQVIFGIDVKEVDPAGHSYILVTCLGLSYDGLLGDDQSTPKTGLLIIVLGMILMEGSRAPEEAIWEALSVMGLYDGREHSVYWKLRKLLTQEWVQENYLEYRQAPGSDPVRYEFLWGPRALAETSYVKVLEHVVRVNARVRISYPSLHEEALGEEKGV | not failed
SLLSVDMEMQIPFHDVDSMGITWHGNYLRYFEIARCKLLDELGYNYRQMQASNYAWPIIDLQIKYVKTSTFEQKITVRAELVEWENRLKINYQIRDVETGARITKGYTIQAAVDMCTQELCFVTPEVFRDKIATLFAKVE | failed
SLSLIRKKGFYKQDVNKTAWELPKTYVSPTHVGSGAYGSVCSAIDKRSGEKVAIKKLSRPFQSEIFAKRAYRELLLLKHMQHENVIGLLDVFTPASSLRNFYDFYLVMPFMQTDLQKIMGLKFSEEKIQYLVYQMLKGLKYIHSAGVVHRDLKPGNLAVNEDCELKILDFGLARHADAEMTGYVVTRWYRAPEVILSWMHYNQTVDIWSVGCIMAEMLTGKTLFKGKDYLDQLTQILKVTGVPGTEFVQKLNDKAAKSYIQSLPQTPRKDFTQLFPRASPQAADLLEKMLELDVDKRLTAAQALTHPFFEPFRDPEEETEAQQPFDDSLEHEKLTVDEWKQHIYKEIVNFSPI | not failed
